The values that follow come from patent publication US9187762B2, “Compositions and methods comprising sequences having hydroxyphenylpyruvate dioxygenase (HPPD) activity” (PIONEER HI-BRED INTERNATIONAL, INC., priority 2010, dated 2015).

Data set [1] concerns maize HPPD. The experiment in a line: ON rate ratio, OFF rate ratio and insensitivity parameter with herbicidal HPPD inhibitors. The data set is classed as biochemical. The text has this: To devise a parameter for detecting changes in inhibitor binding affinity, KD, one can utilize the relationship between KD and the rates of binding and release of inhibitor to and from the enzyme. [formula] Higher KD (reduced affinity or increased insensitivity) can be attained with a numerically smaller ON rate, a larger OFF rate or both. […] The ratio of the reaction rate with inhibitor to that without inhibitor during the 70 to 90 second interval of the reaction was termed the “ON rate ratio”. […] Incubations with the same concentrations of enzyme but no mesotrione were done in parallel. After 1 hr at room temperature, 5 to 10 ul of the enzyme-inhibitor complex was dispensed into the wells of the assay plate. Reactions were started with the addition of 290 to 295 ul of 25 mM Hepes, pH 7, 2 mM ascorbate, 10 uM FeSO4, 100 uM HPP and 50 nM HGD. The reactions were monitored at 320 nm for 12 min. Reaction velocity accelerates as inhibitor is released from the enzyme until a steady state is reached, during which the reaction velocity is constant. The ratio of the steady state rate in mixtures containing mesotrione (or other herbicidal inhibitor) to the initial velocity of mixtures lacking inhibitor is termed the “OFF rate ratio”. Another parameter to record is the time span required for the reactions with inhibitor to reach the steady state. […] It is not certain that the steady state attained in the OFF rate reactions actually represents an equilibrium where OFF rates are now equal to ON rates. Because substrate and inhibitors bind in the same site, the high concentration of substrate present may competitively trap the inhibitor and prevent it from binding again. To be sure that improvement in ON rates is being taken into account, the ON and OFF rate ratios were multiplied together and the product is termed the “insensitivity parameter”. […] The variants in Table 9 were grouped according to the parameter in which they are improved compared to wild type. The sequence positions are numbered according to the wild-type maize amino acid sequence of SEQ ID 1. Some substitutions are effective in multiple contexts, as discussed in the next section.

In data set [2] the test system is maize HPPD. The experiment in a line: KD by isothermal titration calorimetry. The data set is classed as binding. The protocol: To verify that the insensitivity parameter reflects improvement (elevation) in KD, KD was directly measured with isothermal titration calorimetry. […] Enzymes were transferred to a matrix of 25 mM Hepes, pH 7, 2 mM ascorbate and 10 uM FeSO4 by gel-filtration chromatography. Mesotrione or tembotrione were diluted into the same buffer. Enzyme concentrations in the cell ranged from 100 to 300 uM. Inhibitor concentrations in the syringe were always 8 times that of the cell concentration.
For orientation: ITC needs no label: the signal is the heat of the interaction.

For the next data set, the system named is soybean plants. The experiment in a line: Herbicide spray tests of transgenic HPPD soy plants (T1/T2) with multiple HPPD-inhibitor herbicides, visual injury. The data set is classed as in vivo. The note with it: T1 plants, V1 stage; mesotrione, tembotrione, topramezone, isoxaflutole. The method, then: T1 plants were evaluated for zygosity. Homozygous single-locus transgenic plants and their corresponding null segregants were identified and T2 true breeding seed was obtained from each. Plants were grown to the V1 to V2 growth stage and then sprayed with the commercial formulation of mesotrione, tembotrione, topramezone, and isoxaflutole. All treatments were applied with nonionic surfactant and ammonium sulfate in a spray volume of 374 L/ha. Multiple rates of each herbicide were applied so a response range could be used to compare the relative tolerance of the different herbicides as well as the relative tolerance of homozygous nulls and positives for each event. The herbicide response for individual treated plants was evaluated by comparing to untreated plants of similar genetic background. Herbicide response ratings were eight days after treatment. Visual injury was on a scale of 0 to 100% injury (0=no effect to 100=dead plant).
T1 soybean plants expressing D0223903 (SEQ ID NO: 3) driven by a synthetic promoter (as described in U.S. Pat. No. 6,072,050) were evaluated with qPCR for the presence of the transgene and null and positive segregants selected. Plants were sprayed at the V1 growth stage with the commercial formulations of mesotrione, tembotrione, topramezone, and isoxaflutole. Two rates of each herbicide were applied foliarly with nonionic surfactant and ammonium sulfate in a spray volume of 374 L/ha. The herbicide response for individual plants was determined by comparing to untreated plants of similar genetic background. Visual injury was on a scale of 0 to 100% injury (0=no effect to 100=dead plant).

B1: D0223903: shuffled maize HPPD variant, SEQ ID NO: 3; R341C mutation introduced into HPPD D0193494 (protein)
chain: MGPTPTATAAGAAVAAASAAEQAAFRLVGHRNFVRFNPRSDRFHTLAFHHVELWCADAASAAGRFSFALGAPLAARSDLSTGNSAHASLLLRSGSLSFLFTAPYAHGADAATAALPSFSAAAARRFAADHGLAVRAVALRVADAEDAFRASVAAGARPAFGPVDLGRGFRLAEVELYGDVVLRYVSYPDGAAGEPFLPGFEGVASPGAADYGLSRFDHIVGNVPELAPAAAYFAGFTGFHEFAEFTTEDVGTAESGLNSMALANNSENVLLPLNEPVHGTKRRSQIQTFLDHHGGPGVQHIALASDDVLRTLREMQARSAMGGFEFLPPPPSDYYDGVRRCAGDVLTEAQINECQELGVLVDRDDQGVLLQIFTKPVGDRPTFFLEIIQRIGCMEKDEKGQEYQKGGCGGFGKGNFSQLFKSIEDYEKSLEAKQAAAAATAQGS
modifications: HPPD variant
notes: R341C mutation introduced into HPPD D0193494
On to B1, for which the “Insensitivity parameter (ON rate ratio × OFF rate ratio) relative to that of maize wild-type HPPD” value worked out at 12.3 with maize HPPD [1] (Isoxaflutole (diketonitrile)); 3.3 in the data set with maize HPPD [1] (Sulcotrione); 12.7 in the data set with maize HPPD [1] (Topramezone); 6.0 in the data set on maize HPPD [1] (mesotrione); 19.3 in the data set on maize HPPD [1] (tembotrione). For the same molecule, the “Triple product (ON rate ratio × OFF rate ratio × kcat), relative to that of maize wild-type HPPD” value in the data set on maize HPPD [1] (inhibitor Isoxaflutole (diketonitrile)) is recorded as 7.7; in the data set with maize HPPD [1] (inhibitor Mesotrione), 3.7; with maize HPPD [1] (inhibitor Sulcotrione), 2.1; in the data set on maize HPPD [1] (inhibitor Tembotrione), 12.1; with maize HPPD [1] (inhibitor Topramezone) it was 8.0. In addition, the “Fold vs wt (KD)” value in the data set with maize HPPD [2] (Mesotrione, sites modeled: One) is 3.6; in the data set with maize HPPD [2] (Mesotrione, sites modeled: Two), 4.9; in the data set on maize HPPD [2] (Tembotrione, sites modeled: Two), 7.3. Also, the “soybean tolerance to HPPD-inhibitor herbicides” value in the data set on soybean plants is given as “increased soybean tolerance”.
